Drawing on patent US20080213277A1, this text covers Binding to Hepcidin Surface (%) for 4 molecules.

Substitutions are numbered along the chain they refer to.

For experiment [1], the target named is C1-C8, C3-C6 hepcidin variant (human). In words: BIAcore: 1 nM antibody preincubated with 10 nM of this hepcidin form in solution, then run over immobilized rhHepc surface; % = free antibody still binding the surface (low % = strong binding to the solution form). Background: In SPR one partner is held on a chip, and binding of the other changes the refractive index at the surface.

For experiment [2], the target named is linear hepcidin variant (human). The experiment is described as above.

B1: murine anti-human hepcidin monoclonal antibody 2.41 (antibody, V domains shown)
VH: QIQLVQSGPELKKPGETVKISCKASGYTFTTYGMSWVKQAPGKGLKWMGWINTSSGVPTYADDFMGRFAFSLETSASTAYLQINNLKNEDTATYFCARDRYYGEVAYWGQGTLVTVSA
VL: DIVLTQSPASLAVSLGQRATISCRASESVDSFGNSFMHWYQLKPGQPPKLLIYRASNLESGIPARFSGSGSRTDFTLTINPVEADDVAIYYCQQSNEEYTFGGGTKLEIK
For B1, the Binding to Hepcidin Surface (%) turned out to be 1% in experiment [1] and 99% in experiment [2].

B2: rat anti-human hepcidin monoclonal antibody R9 (antibody, V domains shown)
VH: QVTLKESGPGILQPSQTLSLTCSFSGFSLSTSGICVSWIRQPSGKGLEWLATICWEDSKGYNPSLKNRLTISKDTSNNQAFLKITSVDTADTAIYYCARPLNYGGYSELELDYWGQGVMVTVSS
VL: DIQMTQSPSLLSASVGDRVTLSCKASQNIYKYLNWYQQKLGEAPKLLIYYTNSLQTGIPSRFSGSGSGTDFTLTISSLQPEDVATYYCYQYNSGPTFGAGTKLELK
As to B2, the Binding to Hepcidin Surface (%) was found to be 63% in experiment [1] and 100% in experiment [2].

B3: murine anti-human hepcidin monoclonal antibody Ab43 (antibody, V domains shown)
VH: QIQLVQSGPELKKPGETVKISCKASGYTFTTYGMSWVKQAPGKGLKWMGWINTYSGVPTYADDFKGRFAFSLETSASTAYLQINNLKNEDTATYFCASLWYYGRAFDYWGQGTTLTVSS
VL: NIVLTQSPASLAVSLGQRATISCRASESVDSYGNSFMHWYQQKPGQPPKLLIYLASNLESGVPARFSGSGSRTDFTLTIDPVEADDAATYYCQQNNEDRTFGGGTKLEIK
Take B3: the results for the Binding to Hepcidin Surface (%) in experiment [1] and in experiment [2] were 25% and 100%, respectively.

B4: murine anti-human hepcidin monoclonal antibody 2.7 (antibody, V domains shown)
VH: B1 VH with S54Y, M65K, A97G, R100H
VL: B1 VL with F32Y, L42Q, I89T, Q93H
For B4, the figures for the Binding to Hepcidin Surface (%) in experiment [1] and in experiment [2] were 3% and 100%, respectively.
